Laboratory results from patent US20230051715A1 (MABWELL THERAPEUTICS, published 2023).

Tests used:
[1] = biological target: T1, rat C1s (produced in house) (rat, UniProt Q6P6T1 16-688); assay: BLI (Octet RED96e), antibody on AHC biosensor; C1s Species: Rat; R^2 0.9718
T1 construct: also called RaC1s
T1 sequence: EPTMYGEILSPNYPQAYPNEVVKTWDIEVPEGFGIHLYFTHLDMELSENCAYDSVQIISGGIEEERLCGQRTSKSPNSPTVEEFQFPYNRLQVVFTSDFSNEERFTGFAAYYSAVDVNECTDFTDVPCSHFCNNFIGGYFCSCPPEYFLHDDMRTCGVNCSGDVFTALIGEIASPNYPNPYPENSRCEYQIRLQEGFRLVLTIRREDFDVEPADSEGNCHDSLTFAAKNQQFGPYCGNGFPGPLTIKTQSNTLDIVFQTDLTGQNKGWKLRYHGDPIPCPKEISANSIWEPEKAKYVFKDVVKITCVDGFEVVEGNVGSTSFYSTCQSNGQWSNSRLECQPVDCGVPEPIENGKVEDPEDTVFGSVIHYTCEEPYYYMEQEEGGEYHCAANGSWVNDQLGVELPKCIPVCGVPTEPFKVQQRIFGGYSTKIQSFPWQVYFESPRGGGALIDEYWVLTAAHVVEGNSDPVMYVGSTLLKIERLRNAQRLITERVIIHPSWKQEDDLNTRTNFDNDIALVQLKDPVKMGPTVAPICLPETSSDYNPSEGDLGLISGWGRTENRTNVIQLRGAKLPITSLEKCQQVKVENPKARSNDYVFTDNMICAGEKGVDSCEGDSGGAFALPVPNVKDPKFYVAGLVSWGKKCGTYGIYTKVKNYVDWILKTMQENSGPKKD
Description: (§1) At last, analyte was dissociated in 1×KB for 360 sec. Data analysis was done using OCTET® Data Analysis HT Software (Sartorius AG).

[2] = biological target: T2, cynomolgus monkey C1s (produced in house) (cynomolgus monkey, UniProt P09871 16-685 (human entry), limits assumed); assay: BLI (Octet RED96e), antibody on AHC biosensor; C1s Species: Cyno Monkey; R^2 0.9993
T2 construct: also called CyC1s
T2 chain: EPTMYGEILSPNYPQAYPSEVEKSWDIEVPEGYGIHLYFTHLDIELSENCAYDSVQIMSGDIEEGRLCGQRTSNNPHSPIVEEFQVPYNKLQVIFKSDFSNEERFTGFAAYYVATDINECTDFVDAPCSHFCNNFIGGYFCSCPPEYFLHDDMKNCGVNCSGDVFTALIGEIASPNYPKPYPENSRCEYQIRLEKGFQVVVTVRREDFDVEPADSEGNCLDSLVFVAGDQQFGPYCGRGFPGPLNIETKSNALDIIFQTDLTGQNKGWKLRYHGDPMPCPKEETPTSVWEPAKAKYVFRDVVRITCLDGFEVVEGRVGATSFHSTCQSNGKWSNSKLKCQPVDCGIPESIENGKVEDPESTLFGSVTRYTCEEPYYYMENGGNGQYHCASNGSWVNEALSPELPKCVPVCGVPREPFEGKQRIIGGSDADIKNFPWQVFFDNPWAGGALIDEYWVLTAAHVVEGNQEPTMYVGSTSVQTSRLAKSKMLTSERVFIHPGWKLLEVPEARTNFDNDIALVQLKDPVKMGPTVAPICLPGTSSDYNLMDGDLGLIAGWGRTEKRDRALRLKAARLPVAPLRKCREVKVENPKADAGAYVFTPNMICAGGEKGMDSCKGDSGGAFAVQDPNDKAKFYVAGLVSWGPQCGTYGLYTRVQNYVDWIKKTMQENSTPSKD
Description: as §1

[3] = biological target: T3, full-length human C1s (produced in house) (human, UniProt P09871 16-688); assay: BLI (Octet RED96e), antibody on AHC biosensor; C1s Species: Human; R^2 0.9997
T3 construct: Called full-length; Partly auto-cleaved at R422-I423 on blots; also called HuC1s; Hu C1s
T3 sequence: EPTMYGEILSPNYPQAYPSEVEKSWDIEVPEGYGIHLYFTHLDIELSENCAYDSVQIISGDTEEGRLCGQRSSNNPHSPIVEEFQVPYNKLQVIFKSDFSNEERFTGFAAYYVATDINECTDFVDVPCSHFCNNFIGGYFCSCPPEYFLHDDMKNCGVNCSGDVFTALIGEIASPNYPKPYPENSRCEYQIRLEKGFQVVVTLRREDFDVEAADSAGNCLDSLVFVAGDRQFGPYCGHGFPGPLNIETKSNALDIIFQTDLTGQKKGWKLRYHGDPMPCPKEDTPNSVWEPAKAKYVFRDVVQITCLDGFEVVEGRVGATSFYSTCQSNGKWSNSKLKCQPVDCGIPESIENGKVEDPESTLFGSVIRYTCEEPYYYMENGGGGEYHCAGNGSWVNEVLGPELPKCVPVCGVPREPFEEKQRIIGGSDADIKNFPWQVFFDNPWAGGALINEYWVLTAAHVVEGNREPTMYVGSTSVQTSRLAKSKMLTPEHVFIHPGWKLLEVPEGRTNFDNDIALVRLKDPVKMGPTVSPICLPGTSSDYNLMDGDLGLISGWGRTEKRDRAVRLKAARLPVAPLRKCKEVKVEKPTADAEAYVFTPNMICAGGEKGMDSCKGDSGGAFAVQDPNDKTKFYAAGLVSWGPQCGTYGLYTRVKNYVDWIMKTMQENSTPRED
Description: as §1

- Kd [1]: 16 nM
- koff [1]: 0.0012 s⁻¹
- kon [1]: 75000 M⁻¹ s⁻¹
- Kd [2]: 3.5 nM
- koff [2]: 0.00081 s⁻¹
- kon [2]: 230000 M⁻¹ s⁻¹
- Kd [3]: 0.7 nM
- koff [3]: 0.0003 s⁻¹
- kon [3]: 430000 M⁻¹ s⁻¹
B1: Anti-C1s antibody hz2-8 (H1L2 G80A/T82A) (antibody, V domains shown)
VH: QVQLVQSGAEVKKPGASVKVSCKASGFNIKEYYMHWVRQAPEQGLEWMGWIDPENADAIYAQKFQGRVTITADTSTNTAYMELSSLRSEDTAVYYCARSRLFFAYWGQGTLVTVSS
VL: DIQMTQSPKSLSASVGDRVTITCRASQDVRTALDWYQQKPGQSPKLLIYSASYRYSGVPSRFSGSGSGTDFTLTISSLQPEDFATYYCQQQYTTPYTFGQGTKLEIKR
notes: Humanized variant with G80A and T82A in HC CDR2 (already in the entry), human IgG1 / kappa
